The binders below were run against T1, HLA-A*0201 molecule expressed on human T2 cells (human) (assay: T2 cell HLA-A*0201 stabilisation assay, flow cytometry; ratio of the peptide concentrations inducing 20% of HLA-A*0201 expression).
T1 construct: also called HLA.A2.01
Description: T2 cells (2.10⁵ cells per well) were incubated with decreasing concentrations of peptides from 100 μM to 0.1 μM in a AIMV medium supplemented with 100 ng/μl of human β2m at 37° C. for 16 hours.
The analysis was performed by FACS (Guava Easy Cyte). […] The relative affinity is then determined as follows:

| Binder | In vitro binding affinity (relative affinity against reference peptide HIV pol 589-597) |
| --- | --- |
| ALPFGFILV [peptide 1A9V] | 3.06 |
| FLPFGFILM [peptide 1F9M] | 2.62 |
| ILPFGFILA [peptide 1I9A] | 2.22 |

Reference: patent US20200025774A1 (ENTEROME S A, published 2020)
